Experimental data taken from patent publication US20200157212A1 (Pfizer, published 2020).

How the values were obtained:
[1] = target: T1, Terbium (Tb) labeled-SNAP tagged ROBO2 expressed on HEK293 cells (Homo sapiens (Human), UniProt Q9HCK4 22-1378, terbium label on the SNAP tag); test: HTRF competition, competitor d2-SLIT2-N, ROBO2 HEK293 cells
T1 construct: also called Tb-labeled ROBO2 cells; ROBO2 expressing cells; not shown: SNAP tag
T1 sequence: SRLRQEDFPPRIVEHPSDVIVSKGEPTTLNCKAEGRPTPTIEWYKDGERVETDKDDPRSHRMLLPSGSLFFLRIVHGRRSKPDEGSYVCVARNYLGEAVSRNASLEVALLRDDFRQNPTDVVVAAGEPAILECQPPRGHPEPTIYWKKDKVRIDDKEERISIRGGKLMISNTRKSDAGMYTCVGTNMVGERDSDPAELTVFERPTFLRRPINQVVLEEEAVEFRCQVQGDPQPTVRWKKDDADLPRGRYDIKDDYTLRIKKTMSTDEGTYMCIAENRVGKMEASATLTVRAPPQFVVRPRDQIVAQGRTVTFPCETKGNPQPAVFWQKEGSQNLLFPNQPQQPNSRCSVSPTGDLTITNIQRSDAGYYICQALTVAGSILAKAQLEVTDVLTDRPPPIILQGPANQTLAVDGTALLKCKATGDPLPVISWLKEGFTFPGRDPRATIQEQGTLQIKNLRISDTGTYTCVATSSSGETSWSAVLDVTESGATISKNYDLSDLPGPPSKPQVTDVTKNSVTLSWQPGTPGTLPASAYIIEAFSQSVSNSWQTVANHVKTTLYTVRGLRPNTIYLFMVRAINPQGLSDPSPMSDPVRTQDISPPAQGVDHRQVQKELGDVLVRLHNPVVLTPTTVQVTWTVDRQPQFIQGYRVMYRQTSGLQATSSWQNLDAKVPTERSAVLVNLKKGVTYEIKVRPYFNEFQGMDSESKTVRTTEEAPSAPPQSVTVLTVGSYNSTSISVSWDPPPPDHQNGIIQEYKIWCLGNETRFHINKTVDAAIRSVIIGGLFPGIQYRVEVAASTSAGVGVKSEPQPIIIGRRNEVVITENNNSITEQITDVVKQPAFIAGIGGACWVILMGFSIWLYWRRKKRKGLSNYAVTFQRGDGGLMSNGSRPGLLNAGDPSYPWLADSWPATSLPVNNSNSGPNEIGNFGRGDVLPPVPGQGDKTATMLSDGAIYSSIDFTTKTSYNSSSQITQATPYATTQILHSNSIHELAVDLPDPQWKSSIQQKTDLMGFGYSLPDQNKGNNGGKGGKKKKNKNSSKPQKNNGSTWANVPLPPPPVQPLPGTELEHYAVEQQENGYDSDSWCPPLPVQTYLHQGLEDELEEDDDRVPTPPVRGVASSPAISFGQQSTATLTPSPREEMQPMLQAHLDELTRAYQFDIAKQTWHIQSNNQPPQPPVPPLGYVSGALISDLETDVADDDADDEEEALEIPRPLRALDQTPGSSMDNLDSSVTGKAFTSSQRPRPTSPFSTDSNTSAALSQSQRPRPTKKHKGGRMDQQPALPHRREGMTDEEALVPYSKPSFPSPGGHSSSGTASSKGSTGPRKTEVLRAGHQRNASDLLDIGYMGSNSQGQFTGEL
Procedure: A ROBO2-SLIT2-N homogenous time resolved fluorescence (HTRF) assay was used to identify antibodies that were capable of blocking SLIT2-N binding to ROBO2. In this assay, terbium (Tb) labeled-SNAP tagged ROBO2 expressing HEK293 cells were incubated with 5 nM d2-labeled SLIT-2N in the presence of 1 nM anti-ROBO2 antibodies for 1 hour. After incubation, fluorescence at 665 nm and 620 nm was measured on an Envision multilabel plate reader. […] Maximal signal was defined as the HTRF ratio of Tb-labeled ROBO2 cells with d2-labeled SLIT2-N in the absence of antibody, the minimum signal was defined as the HTRF ratio of Tb-labeled ROBO2 expressing HEK293 cells only. One nanomolar (nM) parental antibody, 93H2, was unable to block the HTRF assay, therefore this concentration was selected to identify clones with a higher affinity than 93H2 (Table 2, HTRF Ratio column). […] Antibodies derived from chain (Abcs series) or CDR shuffling (CTIR-2 series) were evaluated in 11-point, 5-fold dilution series with a top concentration of 1500 nM (Table 2 HTRF IC₅₀).
Neutralization of SLIT2-N binding to ROBO2 was assessed ROBO2:SLIT2-N homogenous time resolved fluorescence (HTRF) assay as described in Example 2. Briefly the HTRF assay was performed as follows: terbium (Tb) labeled-SNAP tagged ROBO2 expressing HEK293 cells were incubated with d2-labeled SLIT-2N in the presence of anti-ROBO2 antibodies for 1 hour. After incubation, fluorescence at 665 nm and 620 nm was measured on an Envision multi-label plate reader. […] Maximal signal was defined as the HTRF ratio of Tb-labeled ROBO2 cells with d2-labeled SLIT2-N in the absence of antibody, the minimum signal was defined as the HTRF ratio of Tb-labeled ROBO2 expressing HEK293 cells only.

Human ROBO2 Ig1-Ig2-His = target: T2, Human ROBO2 Ig1-Ig2-His (human, UniProt Q9HCK4 31-220); test: SPR, antibody on CM5 chip, ROBO2 Ig1-Ig2-His
T2 construct: the His tag is named only in the SPR paragraphs; the Octet and ELISA paragraphs print 'ROBO2 Ig1-Ig2' without a tag; also called ROBO2 Ig1-2; Human ROBO2 Ig 1,2
T2 sequence: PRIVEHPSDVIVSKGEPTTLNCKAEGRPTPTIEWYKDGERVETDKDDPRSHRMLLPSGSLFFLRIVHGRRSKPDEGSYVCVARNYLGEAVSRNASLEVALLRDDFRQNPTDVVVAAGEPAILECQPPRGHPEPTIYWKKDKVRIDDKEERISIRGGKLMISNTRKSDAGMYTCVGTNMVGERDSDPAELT
Procedure: Based upon several criteria, Abcs25 and Abcs35 were selected for further characterization. Using flow cytometry, improvement in the binding EC₅₀ to human ROBO2 relative to the parental 93H2 was evaluated. Starting at 6.7 nM, 11-point, 3-fold dilution series were made for each antibody and used to stain HEK293 overexpressing human ROBO2 as described above for the ROBO2 fold selectivity (Example 2). […] In addition to measuring improved binding to human ROBO2, it was important to ensure that high affinity binding to both cynomolgus monkey ROBO2 and rat ROBO2 was maintained. Using HEK293 cells overexpressing either cynomolgus monkey ROBO2 or rat ROBO2, the relative dose-dependent binding of 93H2, Abcs25 and Abcs35 was evaluated as described above. High affinity binding to both cynomolgus monkey and rat ROBO2 was maintained in Abcs25 and Abcs35 (Table 4). […] Briefly, Abcs35 was immobilized to 300 resonance units (RU) on a CM5 chip. Association of ROBO2 Ig1-Ig2-His (ROBO2) was measured over 5 minutes and dissociation was followed for a period of 10 minutes.
Affinity was measured by standard SPR methods as described in Example 3. Briefly, antibodies were immobilized to a specific measure of resonance units (RU) on a CM5 chip. Association of ROBO2 Ig1-Ig2-His (ROBO2) and dissociation will be followed for a period of time.

B1: Abcs35-A (antibody, human IgG1, kappa)
heavy: EVQLVQSGAEVKKPGASVKVSCKASGYTFTGYYMHWVRQAPGQGLEWMGWINPKNGDTEFPQKFQGRVTMTRDTSITTAYMDLSRLRSDDTAVYYCARESGDDAFDIWGQGTMVTVSSASTKGPSVFPLAPSSKSTSGGTAALGCLVKDYFPEPVTVSWNSGALTSGVHTFPAVLQSSGLYSLSSVVTVPSSSLGTQTYICNVNHKPSNTKVDKKVEPKSCDKTHTCPPCPAPEAAGAPSVFLFPPKPKDTLMISRTPEVTCVVVDVSHEDPEVKFNWYVDGVEVHNAKTKPREEQYNSTYRVVSVLTVLHQDWLNGKEYKCKVSNKALPAPIEKTISKAKGQPREPQVYTLPPSREEMTKNQVSLTCLVKGFYPSDIAVEWESNGQPENNYKTTPPVLDSDGSFFLYSKLTVDKSRWQQGNVFSCSVMHEALHNHYTQKSLSLSPGK
light: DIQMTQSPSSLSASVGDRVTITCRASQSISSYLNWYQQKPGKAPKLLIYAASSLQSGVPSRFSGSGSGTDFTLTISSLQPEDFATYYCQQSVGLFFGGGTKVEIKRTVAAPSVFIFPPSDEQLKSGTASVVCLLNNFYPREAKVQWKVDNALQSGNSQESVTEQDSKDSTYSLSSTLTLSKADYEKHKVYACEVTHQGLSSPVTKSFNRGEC
notes: germlined variant of Abcs35; also called Abcs-A
IC50 [1]: 0.0728 nM
Kd (Human ROBO2 Ig1-Ig2-His): 0.099 nM

B2: Abcs35-E (antibody, human IgG1, kappa)
heavy: QVQLVQSGAEVKKPGASVKVSCKASGYTFTGYYMHWVRQAPGQGLEWMGWINPKNGDTEFPQKFQGRVTMTRDTSITTAYMDLSRLRSDDTAVYYCARESGDDAFDIWGQGTMVTVSSASTKGPSVFPLAPSSKSTSGGTAALGCLVKDYFPEPVTVSWNSGALTSGVHTFPAVLQSSGLYSLSSVVTVPSSSLGTQTYICNVNHKPSNTKVDKKVEPKSCDKTHTCPPCPAPEAAGAPSVFLFPPKPKDTLMISRTPEVTCVVVDVSHEDPEVKFNWYVDGVEVHNAKTKPREEQYNSTYRVVSVLTVLHQDWLNGKEYKCKVSNKALPAPIEKTISKAKGQPREPQVYTLPPSREEMTKNQVSLTCLVKGFYPSDIAVEWESNGQPENNYKTTPPVLDSDGSFFLYSKLTVDKSRWQQGNVFSCSVMHEALHNHYTQKSLSLSPGK
light: DIVMTQSPSSLSASVGDRVTITCRASQSISSYLNWYQQKPGKAPKLLIYAASSLQSGVPSRFSGSGSGTDFTLTISSLQPEDFATYYCQQSVGLFFGGGTKVEIKRTVAAPSVFIFPPSDEQLKSGTASVVCLLNNFYPREAKVQWKVDNALQSGNSQESVTEQDSKDSTYSLSSTLTLSKADYEKHKVYACEVTHQGLSSPVTKSFNRGEC
notes: germlined variant of Abcs35; also called Abcs35-eE
IC50 [1]: 0.0651 nM
Kd (Human ROBO2 Ig1-Ig2-His): 0.128 nM

B3: Abcs35-D (antibody, human IgG1, kappa)
heavy: EVQLVQSGAEVKKPGASVKVSCKASGYTFTGYYMHWVRQAPGQGLEWMGWINPKNGDTEFPQKFQGRVTMTRDTSISTAYMELSRLRSDDTAVYYCARESGDDAFDIWGQGTMVTVSSASTKGPSVFPLAPSSKSTSGGTAALGCLVKDYFPEPVTVSWNSGALTSGVHTFPAVLQSSGLYSLSSVVTVPSSSLGTQTYICNVNHKPSNTKVDKKVEPKSCDKTHTCPPCPAPEAAGAPSVFLFPPKPKDTLMISRTPEVTCVVVDVSHEDPEVKFNWYVDGVEVHNAKTKPREEQYNSTYRVVSVLTVLHQDWLNGKEYKCKVSNKALPAPIEKTISKAKGQPREPQVYTLPPSREEMTKNQVSLTCLVKGFYPSDIAVEWESNGQPENNYKTTPPVLDSDGSFFLYSKLTVDKSRWQQGNVFSCSVMHEALHNHYTQKSLSLSPGK
light: DIVMTQSPSSLSASVGDRVTITCRASQSISSYLNWYQQKPGKAPKLLIYAASSLQSGVPSRFSGSGSGTDFTLTISSLQPEDFATYYCQQSVGLFFGGGTKVEIKRTVAAPSVFIFPPSDEQLKSGTASVVCLLNNFYPREAKVQWKVDNALQSGNSQESVTEQDSKDSTYSLSSTLTLSKADYEKHKVYACEVTHQGLSSPVTKSFNRGEC
notes: germlined variant of Abcs35
IC50 [1]: 0.0639 nM
Kd (Human ROBO2 Ig1-Ig2-His): 0.125 nM

B4: Abcs35-C (antibody, human IgG1, kappa)
heavy: EVQLVQSGAEVKKPGASVKVSCKASGYTFTGYYMHWVRQAPGQGLEWMGWINPKNGDTEFPQKFQGRVTMTRDTSITTAYMELSRLRSDDTAVYYCARESGDDAFDIWGQGTMVTVSSASTKGPSVFPLAPSSKSTSGGTAALGCLVKDYFPEPVTVSWNSGALTSGVHTFPAVLQSSGLYSLSSVVTVPSSSLGTQTYICNVNHKPSNTKVDKKVEPKSCDKTHTCPPCPAPEAAGAPSVFLFPPKPKDTLMISRTPEVTCVVVDVSHEDPEVKFNWYVDGVEVHNAKTKPREEQYNSTYRVVSVLTVLHQDWLNGKEYKCKVSNKALPAPIEKTISKAKGQPREPQVYTLPPSREEMTKNQVSLTCLVKGFYPSDIAVEWESNGQPENNYKTTPPVLDSDGSFFLYSKLTVDKSRWQQGNVFSCSVMHEALHNHYTQKSLSLSPGK
light: DIVMTQSPSSLSASVGDRVTITCRASQSISSYLNWYQQKPGKAPKLLIYAASSLQSGVPSRFSGSGSGTDFTLTISSLQPEDFATYYCQQSVGLFFGGGTKVEIKRTVAAPSVFIFPPSDEQLKSGTASVVCLLNNFYPREAKVQWKVDNALQSGNSQESVTEQDSKDSTYSLSSTLTLSKADYEKHKVYACEVTHQGLSSPVTKSFNRGEC
notes: germlined variant of Abcs35
IC50 [1]: 0.074 nM
Kd (Human ROBO2 Ig1-Ig2-His): 0.0821 nM

B5: Abcs35-B (antibody, human IgG1, kappa)
heavy: EVQLVQSGAEVKKPGASVKVSCKASGYTFTGYYMHWVRQAPGQGLEWMGWINPKNGDTEFPQKFQGRVTMTRDTSISTAYMDLSRLRSDDTAVYYCARESGDDAFDIWGQGTMVTVSSASTKGPSVFPLAPSSKSTSGGTAALGCLVKDYFPEPVTVSWNSGALTSGVHTFPAVLQSSGLYSLSSVVTVPSSSLGTQTYICNVNHKPSNTKVDKKVEPKSCDKTHTCPPCPAPEAAGAPSVFLFPPKPKDTLMISRTPEVTCVVVDVSHEDPEVKFNWYVDGVEVHNAKTKPREEQYNSTYRVVSVLTVLHQDWLNGKEYKCKVSNKALPAPIEKTISKAKGQPREPQVYTLPPSREEMTKNQVSLTCLVKGFYPSDIAVEWESNGQPENNYKTTPPVLDSDGSFFLYSKLTVDKSRWQQGNVFSCSVMHEALHNHYTQKSLSLSPGK
light: DIVMTQSPSSLSASVGDRVTITCRASQSISSYLNWYQQKPGKAPKLLIYAASSLQSGVPSRFSGSGSGTDFTLTISSLQPEDFATYYCQQSVGLFFGGGTKVEIKRTVAAPSVFIFPPSDEQLKSGTASVVCLLNNFYPREAKVQWKVDNALQSGNSQESVTEQDSKDSTYSLSSTLTLSKADYEKHKVYACEVTHQGLSSPVTKSFNRGEC
notes: germlined variant of Abcs35
IC50 [1]: 0.0765 nM
Kd (Human ROBO2 Ig1-Ig2-His): 0.123 nM
